This is an account of results in patent publication US20210024620A1.

The target in test [1] is biotinylated human FcRn (human) (UniProt P55899). Put plainly: Biacore SPR, pH 6.0. A general note: SPR reads the build-up and loss of mass on a sensor chip optically.
For test [2], the target named is biotinylated human FcRn (p51 subunit residues 24-297 with C-terminal Avi-tag; beta2-microglobulin residues 21-119) (human) (UniProt P55899). Put plainly: Biacore SPR, pH 6.0.
The target in test [3] is biotinylated human FcRn (human) (UniProt P55899). Put plainly: Biacore SPR, pH 7.4, 1000 nM antibody.
In test [4] the target is biotinylated human FcRn (p51 subunit residues 24-297 with C-terminal Avi-tag; beta2-microglobulin residues 21-119) (human) (UniProt P55899). Put plainly: Biacore; inverse ratio (RU at pH 7.4 over affinity at pH 6.0).
Test [5] has as its target biotinylated human FcRn (human) (UniProt P55899). Put plainly: Biacore, pH 6.0.
Test [6] concerns the target biotinylated human FcRn (p51 subunit residues 24-297 with C-terminal Avi-tag; beta2-microglobulin residues 21-119) (human) (UniProt P55899). The experiment in a line: Biacore; affinity at pH 6.0 (M^-1) over steady state RU at pH 7.4.
Test [7] addresses biotinylated human FcRn (human) (UniProt P55899). Put plainly: Biacore, pH 6.0, apparent KD.
For test [8] the target is unchanged. The experiment in a line: Biacore SPR, pH 7.4.
In test [9] the target is biotinylated human FcRn (p51 subunit residues 24-297 with C-terminal Avi-tag; beta2-microglobulin residues 21-119) (human) (UniProt P55899). The experiment in a line: Biacore SPR, pH 7.4, steady state.
In test [10] the target is biotinylated human FcRn (human) (UniProt P55899). The experiment in a line: Biacore, pH 7.4, steady state response.
In test [11] the target is Human CD16a (FcγRIIIa V158) with C-terminal HPC4 tag (human) (UniProt P08637). The experiment in a line: Biacore, FcγRIIIa V158 captured, steady-state fit, apparent KD.
For test [12], the target named is biotinylated human FcRn (human) (UniProt P55899). Put plainly: Biacore SPR, pH 6.0. This is another data set of the same source.
In test [13] the target is rat FcRn (rat) (UniProt P13599). Put plainly: Biacore SPR, pH 6.0.
Test [14] shares this target. The experiment in a line: Biacore SPR, pH 7.4, 1000 nM antibody.
The target is the same in test [15]. Put plainly: Biacore, pH 6.0.
The target is the same in test [16]. The experiment in a line: Octet BLI, pH 6.0.
Test [17] shares this target. The experiment in a line: Biacore, pH 6.0, apparent KD.
For test [18], the target named is Human CD16a (FcγRIIIa V158) with C-terminal HPC4 tag (human) (UniProt P08637). Put plainly: Biacore SPR, FcγRIIIa-V158 captured, pH 7.4.
Test [19] deals with biotinylated human FcRn (human) (UniProt P55899). Put plainly: Biacore SPR, pH 7.4. This is another data set of the same source.
Test [20] deals with rat FcRn (rat) (UniProt P13599). The experiment in a line: Biacore SPR, pH 7.4.
Test [21] shares this target. Put plainly: Biacore, pH 7.4, steady state response.
For test [22], the target named is FcRn immobilised on the FcRn affinity column (biotinylated cynoFcRn in one experiment, biotinylated hFcRn in another). The experiment in a line: FcRn affinity chromatography, linear pH gradient; species of the immobilised FcRn not given.
Test [23] addresses rat FcRn (rat) (UniProt P13599). The experiment in a line: Biacore SPR, pH 6.0. The source holds these as a separate data set.
The target in test [24] is Human CD16a (FcγRIIIa V158) with C-terminal HPC4 tag (human) (UniProt P08637). Put plainly: Biacore SPR, FcγRIIIa.
Test [25] concerns the target rat FcRn (rat) (UniProt P13599). The experiment in a line: Octet BLI screen, pH 6.0. For orientation: BLI is a label-free optical method that tracks binding on a fibre tip over time.

Chain of rat FcRn (rat) (P13599 23-298 limits assumed, chain 1 of 2): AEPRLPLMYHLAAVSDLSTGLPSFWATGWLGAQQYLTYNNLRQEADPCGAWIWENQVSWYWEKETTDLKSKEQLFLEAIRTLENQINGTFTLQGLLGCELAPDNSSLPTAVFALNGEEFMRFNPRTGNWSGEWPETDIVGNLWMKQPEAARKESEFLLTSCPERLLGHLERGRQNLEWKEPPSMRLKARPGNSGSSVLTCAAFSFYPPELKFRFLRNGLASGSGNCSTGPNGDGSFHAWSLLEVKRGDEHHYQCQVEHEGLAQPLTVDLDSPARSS
Chain of rat FcRn (rat) (P07151 21-119 limits assumed, chain 2 of 2, further chain): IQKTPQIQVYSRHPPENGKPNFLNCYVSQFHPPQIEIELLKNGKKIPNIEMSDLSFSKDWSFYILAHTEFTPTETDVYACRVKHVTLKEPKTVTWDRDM
Chain of biotinylated human FcRn (p51 subunit residues 24-297 with C-terminal Avi-tag; beta2-microglobulin residues 21-119) (human) (P55899 24-297 limits assumed, chain 1 of 2): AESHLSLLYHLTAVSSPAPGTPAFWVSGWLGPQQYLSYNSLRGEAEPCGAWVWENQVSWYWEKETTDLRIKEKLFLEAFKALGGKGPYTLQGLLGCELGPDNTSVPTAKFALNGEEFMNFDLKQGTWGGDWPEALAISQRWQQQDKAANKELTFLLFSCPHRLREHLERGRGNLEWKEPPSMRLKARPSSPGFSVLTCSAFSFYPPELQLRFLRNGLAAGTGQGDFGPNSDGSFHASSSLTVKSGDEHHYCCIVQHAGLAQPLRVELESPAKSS
Chain of biotinylated human FcRn (p51 subunit residues 24-297 with C-terminal Avi-tag; beta2-microglobulin residues 21-119) (human) (P61769 21-119 limits assumed, chain 2 of 2, further chain): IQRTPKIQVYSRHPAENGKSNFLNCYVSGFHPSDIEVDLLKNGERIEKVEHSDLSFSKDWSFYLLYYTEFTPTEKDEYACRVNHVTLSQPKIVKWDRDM
Chain of biotinylated human FcRn (human) (P55899 24-297 limits assumed, chain 1 of 2): as the sequence (P55899 24-297 limits assumed, chain 1 of 2) above
Chain of biotinylated human FcRn (human) (P61769 21-119 limits assumed, chain 2 of 2, further chain): as the sequence (P61769 21-119 limits assumed, chain 2 of 2, further chain) above
Chain of Human CD16a (FcγRIIIa V158) with C-terminal HPC4 tag (human) (P08637 17-208 F176V): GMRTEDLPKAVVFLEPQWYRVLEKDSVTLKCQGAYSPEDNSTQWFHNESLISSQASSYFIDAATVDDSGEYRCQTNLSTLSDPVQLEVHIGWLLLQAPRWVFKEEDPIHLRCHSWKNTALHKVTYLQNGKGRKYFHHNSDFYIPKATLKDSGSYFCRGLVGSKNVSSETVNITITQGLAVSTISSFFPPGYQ

With “mAb1 AAA (T307A/E380A/N434A) (antibody; other documents disagree on this pair)”, the Kd in test [1] and in [7] was 1780 nM in each case. Moreover, the values for the off-rate (koff) in test [1] and in test [5] were 0.144 s⁻¹ and 0.14 s⁻¹, respectively. In addition, the values for the on-rate (kon) in [1] and in test [5] were 83700 M⁻¹ s⁻¹ and 84000 M⁻¹ s⁻¹, respectively. This substance also yielded a Ka in test [2] of 562000 M⁻¹. Besides, the results for the Steady State RU in [3], in test [8] and in [10] were 13.9 RU, 13.1 RU and 13.9 RU, respectively. The Ratio (pH 6.0/pH 7.4) in test [4] worked out at 2.47e-05; in test [6] it was 40400. The substance further gave a Steady State Binding, pH 7.4 (RU) in test [9] of 13.9 RU.

As for mAb1 LS (M428L/N434S) (antibody), the Kd in test [11] is 369 nM; in test [12] it was 272 nM; in test [13], 74 nM; in test [7], 272 nM; in [17] it was 74 nM. For the same substance, the koff (in general, the rate constant with which the complex falls apart) amounted to 0.05 s⁻¹ in [12]; 0.052 s⁻¹ in test [1]; 0.00658 s⁻¹ in [13]; 0.05 s⁻¹ in test [5]; 0.0066 s⁻¹ in test [15]; 0.00338 s⁻¹ in test [16]. Besides, the kon (commonly the second-order rate constant of association) was determined as 190000 M⁻¹ s⁻¹ in test [12]; 193000 M⁻¹ s⁻¹ in [1]; 90800 M⁻¹ s⁻¹ in test [13]; 193000 M⁻¹ s⁻¹ in test [5]; 91000 M⁻¹ s⁻¹ in test [15]. The substance further had a Ka in test [2] of 3.68e+06 M⁻¹. Moreover, the Steady State RU in [3] came to 18.3 RU; in [14] it was 24.8 RU; in test [8] it was 18.5 RU; in test [19], 18.3 RU; in [20], 24.8 RU; in test [10], 18.3 RU. Moreover, the Steady State RU in [21] was found to be 24.8 RU. Besides, the Ratio (pH 6.0/pH 7.4) is 4.97e-06 in test [4] and 201000 in test [6]. The Steady State Binding, pH 7.4 (RU) in [9] is 18.3 RU. For the same substance, the FcγRIIIa V158 affinity fold change relative to WT in test [18] is 1.04 fold. In test [22], this substance showed a FcRn affinity column elution pH of 8.29 pH.

Consider mAb1 MDWN (T256D/T307W) (antibody), for which the Kd was determined as 512 nM in [11]; 8.2 nM in test [23]; 169 nM in test [1]; 8.24 nM in test [13]; 169 nM in test [7]; 8.2 nM in test [17]. The koff in test [12] was 0.089 s⁻¹; in [1], 0.0892 s⁻¹; in [13], 0.00129 s⁻¹; in test [5], 0.089 s⁻¹; in [15], 0.0013 s⁻¹. The kon is 530000 M⁻¹ s⁻¹ in [12]; 529000 M⁻¹ s⁻¹ in test [1]; 157000 M⁻¹ s⁻¹ in test [13]; 530000 M⁻¹ s⁻¹ in test [5]; 16000 M⁻¹ s⁻¹ in test [15]. Moreover, the Ka in test [2] came to 5.92e+06 M⁻¹. Moreover, the Ratio (pH 7.4/pH 6.0) in [4] is 2.06e-06. For the same substance, in test [6], the Ratio (pH 6.0/pH 7.4) is 485000. In [9], the Steady State Binding, pH 7.4 (RU) stood at 12.2 RU. In addition, in test [18], the FcγRIIIa V158 affinity fold change relative to WT stood at 0.89 fold. The Steady State RU came out at 12.2 RU in test [19], 42.1 RU in test [20], 12.2 RU in [10] and 42.1 RU in test [21]. This substance also displayed a FcRn affinity column elution pH in [22] of 7.92 pH.

In the case of mAb1 N434F (antibody), the Kd in test [13] and in test [17] was 26 nM throughout. For the same substance, the Steady State RU was determined as 54.9 RU in test [14] and 61.5 RU in test [20]. In test [24], the enhancement of FcγRIIIa binding vs WT is 16 to 40%.

Turning to mAb1 N434Y (antibody), the Kd in test [13] and in [17] was 23 nM each time. The koff was 0.00346 s⁻¹ in test [13], 0.0035 s⁻¹ in test [15] and 0.00133 s⁻¹ in test [16]. Also, the kon in test [13] and in test [15] was 145000 M⁻¹ s⁻¹ throughout. For the same substance, the fold slower off-rate vs WT in test [25] was above 2 fold. Besides, the Steady State RU is 47 RU in test [14] and 66 RU in test [20]. Also, in test [18], the FcγRIIIa V158 affinity fold change relative to WT stood at 1.41 fold. In test [24], the enhancement of FcγRIIIa binding vs WT lay in the range of 16 to 40%. In test [22], this substance displayed a FcRn affinity column elution pH of 8.46 pH.

For mAb1 YTE (M252Y/S254T/T256E) (antibody), the Kd stood at 1040 nM in [11]; 342 nM in test [12]; 18 nM in test [13]; 342 nM in test [7]; 18 nM in test [17]. Besides, the dissociation rate constant (koff) was determined as 0.047 s⁻¹ in test [12]; 0.045 s⁻¹ in test [1]; 0.00121 s⁻¹ in [13]; 0.05 s⁻¹ in test [5]; 0.0012 s⁻¹ in test [15]; 0.00066 s⁻¹ in test [16]. The kon in test [12] was found to be 140000 M⁻¹ s⁻¹; in test [1], 143000 M⁻¹ s⁻¹; in test [13], 65200 M⁻¹ s⁻¹; in [5], 143000 M⁻¹ s⁻¹; in test [15] it was 65000 M⁻¹ s⁻¹. The substance also displayed a Ka in [2] of 2.92e+06 M⁻¹. The Steady State RU in test [3] was 13.2 RU; in [14], 53.9 RU; in test [8], 13.1 RU; in test [19], 13.2 RU; in [20], 53.9 RU; in test [10], 13.2 RU. This substance displayed a Steady State RU in test [21] of 53.9 RU. The Ratio (pH 6.0/pH 7.4) in test [6] came to 221000. In test [9], this substance showed a Steady State Binding, pH 7.4 (RU) of 13.2 RU. Moreover, the FcγRIIIa V158 affinity fold change relative to WT in test [18] stood at 0.52 fold. The same substance had a reduction in binding response vs wildtype in test [24] of 50%. This substance also yielded a FcRn affinity column elution pH in test [22] of 8.14 pH.
